# T1: trypsin (bovine pancreas) (Bos taurus, UniProt P00760)
# T1 construct: purchased Sigma-Aldrich; host or cells: bovine pancreas
# T1 sequence (P00760 24-246): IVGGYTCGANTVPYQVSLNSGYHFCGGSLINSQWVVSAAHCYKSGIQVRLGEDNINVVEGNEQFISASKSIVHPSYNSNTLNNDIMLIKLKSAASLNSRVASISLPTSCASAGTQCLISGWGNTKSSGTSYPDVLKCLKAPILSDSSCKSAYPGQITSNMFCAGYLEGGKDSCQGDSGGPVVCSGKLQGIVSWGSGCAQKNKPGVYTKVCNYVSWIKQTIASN
# T2: hPRLR (Homo sapiens, UniProt P16471)
# T2 construct: T84 cells express high levels of hPRLR relative to hGHR (>1300:1); host or cells: T84 (human colon cancer), MALME-3M (human melanoma)
# T2 sequence (P16471 25-622): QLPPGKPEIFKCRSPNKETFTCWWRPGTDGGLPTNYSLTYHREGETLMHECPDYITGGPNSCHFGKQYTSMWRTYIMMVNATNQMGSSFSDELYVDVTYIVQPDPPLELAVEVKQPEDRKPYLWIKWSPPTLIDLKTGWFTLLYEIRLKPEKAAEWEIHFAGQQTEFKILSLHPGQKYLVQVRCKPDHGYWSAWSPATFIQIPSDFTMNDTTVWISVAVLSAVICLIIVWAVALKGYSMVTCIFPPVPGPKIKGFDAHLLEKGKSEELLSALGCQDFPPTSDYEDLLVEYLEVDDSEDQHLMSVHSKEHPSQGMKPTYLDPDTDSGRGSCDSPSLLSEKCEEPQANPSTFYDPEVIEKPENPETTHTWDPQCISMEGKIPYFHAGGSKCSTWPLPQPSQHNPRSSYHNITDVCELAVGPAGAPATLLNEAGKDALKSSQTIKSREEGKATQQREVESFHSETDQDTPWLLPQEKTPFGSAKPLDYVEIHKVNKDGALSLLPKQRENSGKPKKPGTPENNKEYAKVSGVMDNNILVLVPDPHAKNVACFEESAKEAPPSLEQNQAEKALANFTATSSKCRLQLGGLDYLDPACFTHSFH
# T3: human prolactin receptor (human (endogenous in T84, MALME-3M)) (UniProt P16471)
# T3 sequence: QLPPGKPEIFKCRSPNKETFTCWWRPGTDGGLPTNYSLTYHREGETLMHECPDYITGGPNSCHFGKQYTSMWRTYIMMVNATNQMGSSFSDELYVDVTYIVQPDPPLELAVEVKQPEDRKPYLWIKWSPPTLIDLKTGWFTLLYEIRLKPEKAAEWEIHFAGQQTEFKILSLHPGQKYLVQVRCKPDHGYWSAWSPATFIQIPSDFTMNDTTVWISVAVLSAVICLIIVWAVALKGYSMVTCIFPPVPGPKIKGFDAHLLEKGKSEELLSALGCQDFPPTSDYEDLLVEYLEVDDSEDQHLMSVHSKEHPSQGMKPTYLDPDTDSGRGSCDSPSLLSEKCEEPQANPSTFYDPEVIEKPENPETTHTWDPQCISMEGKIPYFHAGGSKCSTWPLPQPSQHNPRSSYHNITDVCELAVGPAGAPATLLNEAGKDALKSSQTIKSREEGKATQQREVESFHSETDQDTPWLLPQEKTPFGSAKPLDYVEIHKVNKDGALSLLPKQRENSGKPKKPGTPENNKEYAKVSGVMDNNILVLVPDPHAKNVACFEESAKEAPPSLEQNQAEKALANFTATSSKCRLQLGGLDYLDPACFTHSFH
# T4: mouse GHR (mouse (endogenous in L fibroblasts)) (UniProt P16882)
# T4 sequence: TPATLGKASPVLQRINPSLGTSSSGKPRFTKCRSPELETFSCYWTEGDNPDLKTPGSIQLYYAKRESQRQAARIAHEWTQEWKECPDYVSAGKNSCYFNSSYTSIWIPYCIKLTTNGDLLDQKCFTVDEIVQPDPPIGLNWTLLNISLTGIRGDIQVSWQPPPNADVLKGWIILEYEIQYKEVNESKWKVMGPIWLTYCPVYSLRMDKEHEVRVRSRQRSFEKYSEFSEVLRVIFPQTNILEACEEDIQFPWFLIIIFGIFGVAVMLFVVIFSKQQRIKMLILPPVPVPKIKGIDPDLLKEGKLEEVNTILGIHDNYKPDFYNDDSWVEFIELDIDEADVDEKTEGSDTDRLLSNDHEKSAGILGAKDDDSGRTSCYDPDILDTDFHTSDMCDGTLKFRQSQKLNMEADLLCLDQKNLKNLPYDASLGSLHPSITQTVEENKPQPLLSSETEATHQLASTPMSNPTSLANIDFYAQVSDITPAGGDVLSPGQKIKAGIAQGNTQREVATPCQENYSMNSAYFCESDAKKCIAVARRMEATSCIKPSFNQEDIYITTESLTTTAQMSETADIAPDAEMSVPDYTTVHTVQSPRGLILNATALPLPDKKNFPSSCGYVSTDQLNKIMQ
# B1: S1H peptide (site 1-binding helix) (peptide)
# peptide: Ac-YIPKEQKYSFLQNPQT-NH2
# Legend:
# [1] = target: T1, trypsin (bovine pancreas); assay: Trypsin degradation of hGH and pegvisomant (HPLC and Western blot); type: in vitro ADME; conditions: 4 μg/ml trypsin in digestion buffer pH 7.8, 37 °C, up to 8 h, 25 μg/ml protein
# Description: (§1) The samples were then incubated at 95 °C for 5 min before being cooled on ice and stored at −80 °C. […] Following separation, the proteins were transferred to polyvinylidine difluoride membranes and subjected to Western blot analysis (vide infra). The fraction of intact protein was quantified by measuring the integrated density of each band contained within regions of the gel corresponding to “intact” or “degraded” proteins. […] These reactions were allowed to incubate at 37 °C for up to 8 h, with samples removed at selected timepoints for analysis. Following incubation, the samples were either mixed with 5× Laemmli loading buffer and subjected to SDS-PAGE for Western blot analysis (Fig. S5) or directly injected onto a C18 reversed-phase column for analysis by HPLC as described above for the S1H peptide (Fig. S4).
# [2] = target: T2, hPRLR; assay: hGH-mediated pSTAT5 in T84 cells, Western blot; type: cell-based; conditions: 50 nM inhibitor with 2.5 nM hGH, 20 min
# Description: SK-MEL-28, MALME-3M, and T84 cells were grown and maintained in Eagle's Minimal Essential Medium. IM9 and L cells were grown in RPMI-1640 media and Dulbecco's modified Eagle's medium, respectively. All growth media was supplemented with 10% fetal bovine serum and 1× antibiotic-antimycotic […] solution. Cells were grown at 37 °C under a 5% CO2 atmosphere in a humidified incubator, and growth media was replaced every 48 h during incubation. No hGH was present in or added to the growth media unless specifically indicated. […]
# Following treatment, the cells were harvested at the indicated time points, and the total protein was extracted. […] Sample protein concentration was quantified using a Bradford assay with bovine serum albumin as the protein standard. Absorbance at 595 nm was measured using a Spectramax 250 multimode plate reader (Molecular Devices) and processed using SoftmaxPro v4.7.1 software.
# Cytosolic fractions from treated cells were thawed on ice, and 80 μg protein was loaded onto polyacrylamide gels for separation by SDS-PAGE. […] Chemiluminescence signals were detected using a GelDoc (BioRad) fluorescence imager. […] Percent inhibition was then measured by subtracting the pSTAT5 band intensity in each lane from the pSTAT5 band intensity of hGH-treated samples. […]
# [3] = Stability of hGH and pegvisomant in human serum (Western blot); type: in vitro ADME; conditions: RPMI with 25% (v/v) heat-inactivated human AB serum, 37 °C, 25 μg/ml protein, SDS-PAGE/Western blot densitometry, average of three experiments
# Description: as §1
# [4] = target: T3, human prolactin receptor (human (endogenous in T84, MALME-3M))
# [5] = target: human growth hormone receptor (human (endogenous in SK-MEL-28, MALME-3M, IM9)) (UniProt P10912)
# Chain of human growth hormone receptor (human (endogenous in SK-MEL-28, MALME-3M, IM9)) (P10912 19-638): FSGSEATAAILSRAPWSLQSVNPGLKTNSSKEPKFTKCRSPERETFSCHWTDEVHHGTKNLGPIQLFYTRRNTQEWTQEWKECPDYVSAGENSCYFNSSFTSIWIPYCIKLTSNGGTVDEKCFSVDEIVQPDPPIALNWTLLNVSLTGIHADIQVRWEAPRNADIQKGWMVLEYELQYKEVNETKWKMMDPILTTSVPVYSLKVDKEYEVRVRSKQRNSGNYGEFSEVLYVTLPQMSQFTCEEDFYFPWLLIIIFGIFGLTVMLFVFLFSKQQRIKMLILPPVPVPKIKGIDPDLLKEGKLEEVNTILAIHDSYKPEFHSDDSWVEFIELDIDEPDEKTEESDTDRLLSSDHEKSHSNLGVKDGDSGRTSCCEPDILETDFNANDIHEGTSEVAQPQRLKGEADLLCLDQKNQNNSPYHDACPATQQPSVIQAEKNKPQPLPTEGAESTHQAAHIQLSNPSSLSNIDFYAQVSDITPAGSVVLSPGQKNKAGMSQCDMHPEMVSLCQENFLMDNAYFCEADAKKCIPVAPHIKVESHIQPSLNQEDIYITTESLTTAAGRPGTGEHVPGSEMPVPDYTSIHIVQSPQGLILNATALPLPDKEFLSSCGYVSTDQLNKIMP
# [6] = target: human growth hormone receptor (human (endogenous in SK-MEL-28, MALME-3M, IM9)) (UniProt P10912); remark: listed apart in the source
# [7] = target: T4, mouse GHR (mouse (endogenous in L fibroblasts))
Molecule,time to full degradation by trypsin [1] [h],suppression of hGH-mediated phosphorylation of STAT5 [2] [%],protein remaining intact after 48 h in human serum [3] [%],inhibition of hPRL-induced pSTAT5 (Western blot) in MALME-3M cells treated with 2.5 nM hPRL and S1H; pair blocked: hPRL with hPRLR [4] [%],inhibition of hGH-induced pSTAT5 (Western blot) in MALME-3M cells treated with 2.5 nM hGH and 50 nM S1H; pair blocked: hGH with hGHR [5] [%],suppression of hGH-mediated pSTAT5 (Western blot) in IM9 cells co-treated with 2.5 nM hGH and 200 nM S1H; pair blocked: hGH with hGHR [6] [%],suppression of hGH-mediated pSTAT5 (Western blot) in MALME-3M cells co-treated with 2.5 nM hGH and 200 nM S1H; pair blocked: hGH with hGHR [6] [%],"suppression of hGH-mediated pSTAT5 (Western blot) in SK-MEL-28 cells co-treated with 2.5 nM hGH and S1H, 100 nM (46%) to 200 nM (67%); pair blocked: hGH with hGHR [6] [%]",suppression of hGH-mediated pSTAT5 (Western blot) in mouse L fibroblasts co-treated with GH and 200 nM S1H; pair blocked: GH with the GHR of the L cells [7] [%]
pegvisomant [reference compound],4,27,76,,,,,,
B1,,,,49,40,67,56,67,36

# — PMC8086144, “A novel peptide antagonist of the human growth hormone receptor” (The Journal of Biological Chemistry, 2021)
